# According to PMC9472817, “Structural and functional characterisation of a stable, broad-specificity multimeric sialidase from the oral pathogen Tannerella forsythia” (Biochemical Journal, 2022):
# Target: NanH sialidase of Tannerella forsythia (wild type) (Tannerella forsythia 92A.2)
# Test: SEC-MALS; NanH at 0.5 and 3.0 mg/ml on Superdex S200 10/300 in 50 mM sodium phosphate, 200 mM NaCl pH 7.4, ~20°C; self-association
substance,measurement,value
NanH sialidase of Tannerella forsythia (wild type) (enzyme),percent of the protein as dimer,90%
same,stoichiometry N,2
